{
  "source": "patent US20260117202A1",
  "key": {"[1]": {"target": "wild-type RSV F protein 2 before artificial mutation (RSV strain A2) (UniProt P03420)", "experiment": "sandwich ELISA, AM14 coated, F at 2 µg/ml"}, "[2]": {"target": "FHCS-1 (RSV strain A2) (UniProt P03420)", "experiment": "ELISA; F coated 625 ng/ml; stored -80° C."}, "[3]": {"target": "FHCS-2 (RSV strain A2) (UniProt P03420)", "experiment": "ELISA; F coated 625 ng/ml; stored -80° C."}, "[4]": {"target": "FHCS-4 (RSV strain A2) (UniProt P03420)", "experiment": "ELISA; F coated 625 ng/ml; stored -80° C."}, "[5]": {"target": "FHCS-1 (RSV strain A2) (UniProt P03420)", "experiment": "ELISA; F coated 10000 ng/ml; stored -80° C."}, "[6]": {"target": "FHCS-2 (RSV strain A2) (UniProt P03420)", "experiment": "ELISA; F coated 10000 ng/ml; stored -80° C."}, "[7]": {"target": "FHCS-4 (RSV strain A2) (UniProt P03420)", "experiment": "ELISA; F coated 10000 ng/ml; stored -80° C."}, "[8]": {"target": "FHCS-1 (RSV strain A2) (UniProt P03420)", "experiment": "ELISA; F coated 1250 ng/ml; stored -80° C."}, "[9]": {"target": "FHCS-2 (RSV strain A2) (UniProt P03420)", "experiment": "ELISA; F coated 1250 ng/ml; stored -80° C."}, "[10]": {"target": "FHCS-1 (RSV strain A2) (UniProt P03420)", "experiment": "ELISA; F coated 78.13 ng/ml; stored -80° C."}, "[11]": {"target": "FHCS-2 (RSV strain A2) (UniProt P03420)", "experiment": "ELISA; F coated 78.13 ng/ml; stored -80° C."}, "[12]": {"target": "FHCS-4 (RSV strain A2) (UniProt P03420)", "experiment": "ELISA; F coated 78.13 ng/ml; stored -80° C."}, "[13]": {"target": "FHCS-1 (RSV strain A2) (UniProt P03420)", "experiment": "ELISA; F coated 312.5 ng/ml; stored -80° C."}, "[14]": {"target": "FHCS-2 (RSV strain A2) (UniProt P03420)", "experiment": "ELISA; F coated 312.5 ng/ml; stored -80° C."}, "[15]": {"target": "FHCS-4 (RSV strain A2) (UniProt P03420)", "experiment": "ELISA; F coated 312.5 ng/ml; stored -80° C."}, "[16]": {"target": "FHCS-1 (RSV strain A2) (UniProt P03420)", "experiment": "ELISA; F coated 156.3 ng/ml; stored 37° C. 2 W"}, "[17]": {"target": "FHCS-2 (RSV strain A2) (UniProt P03420)", "experiment": "ELISA; F coated 156.3 ng/ml; stored 37° C. 2 W"}, "[18]": {"target": "FHCS-4 (RSV strain A2) (UniProt P03420)", "experiment": "ELISA; F coated 156.3 ng/ml; stored 37° C. 2 W"}, "[19]": {"target": "FHCS-1 (RSV strain A2) (UniProt P03420)", "experiment": "ELISA; F coated 312.5 ng/ml; stored 37° C. 2 W"}, "[20]": {"target": "FHCS-2 (RSV strain A2) (UniProt P03420)", "experiment": "ELISA; F coated 312.5 ng/ml; stored 37° C. 2 W"}, "[21]": {"target": "FHCS-4 (RSV strain A2) (UniProt P03420)", "experiment": "ELISA; F coated 312.5 ng/ml; stored 37° C. 2 W"}, "[22]": {"target": "FHCS-1 (RSV strain A2) (UniProt P03420)", "experiment": "ELISA; F coated 78.13 ng/ml; stored 37° C. 2 W"}, "[23]": {"target": "FHCS-2 (RSV strain A2) (UniProt P03420)", "experiment": "ELISA; F coated 78.13 ng/ml; stored 37° C. 2 W"}, "[24]": {"target": "FHCS-4 (RSV strain A2) (UniProt P03420)", "experiment": "ELISA; F coated 78.13 ng/ml; stored 37° C. 2 W"}, "[25]": {"target": "FHCS-1 (RSV strain A2) (UniProt P03420)", "experiment": "ELISA; F coated 78.13 ng/ml; stored 37° C. 4 W"}, "[26]": {"target": "FHCS-2 (RSV strain A2) (UniProt P03420)", "experiment": "ELISA; F coated 78.13 ng/ml; stored 37° C. 4 W"}, "[27]": {"target": "FHCS-4 (RSV strain A2) (UniProt P03420)", "experiment": "ELISA; F coated 78.13 ng/ml; stored 37° C. 4 W"}},
  "note": "“And” between values parts separate entries of the source, which are not always exact repeats. Equal entries are not always repeated.",
  "data": [
    {"substance": "AM14 monoclonal antibody", "values": [
      {"measurement": "OD value", "setting": "[1]", "result": 0.01, "unit": "OD"},
      {"measurement": "OD value", "setting": "[2]", "result": "0.004 OD and 0.007 OD"},
      {"measurement": "OD value", "setting": "[3]", "result": 0.008, "unit": "OD"},
      {"measurement": "OD value", "setting": "[4]", "result": "0.005 OD and 0.006 OD"},
      {"measurement": "OD value", "setting": "[5]", "result": "1.82 OD and 2.12 OD"},
      {"measurement": "OD value", "setting": "[6]", "result": "1.88 OD and 2.15 OD"},
      {"measurement": "OD value", "setting": "[7]", "result": "2.13 OD and 1.93 OD"}
    ]},
    {"substance": "Synagis® (antibody)", "values": [
      {"measurement": "OD value", "setting": "[8]", "result": "0.635 OD and 0.642 OD"},
      {"measurement": "OD value", "setting": "[9]", "result": 0.928, "unit": "OD"},
      {"measurement": "OD value", "setting": "[10]", "result": "0.009 OD and 0.01 OD"},
      {"measurement": "OD value", "setting": "[11]", "result": "0.014 OD and 0.015 OD"},
      {"measurement": "OD value", "setting": "[12]", "result": "0.009 OD and 0.011 OD"},
      {"measurement": "OD value", "setting": "[13]", "result": "0.065 OD and 0.053 OD"},
      {"measurement": "OD value", "setting": "[14]", "result": "0.109 OD and 0.097 OD"},
      {"measurement": "OD value", "setting": "[15]", "result": "0.032 OD and 0.028 OD"},
      {"measurement": "OD value", "setting": "[16]", "result": "0.017 OD and 0.018 OD"},
      {"measurement": "OD value", "setting": "[17]", "result": "0.037 OD and 0.036 OD"},
      {"measurement": "OD value", "setting": "[18]", "result": "0.033 OD and 0.024 OD"},
      {"measurement": "OD value", "setting": "[19]", "result": "0.051 OD and 0.05 OD"},
      {"measurement": "OD value", "setting": "[20]", "result": "0.084 OD and 0.095 OD"},
      {"measurement": "OD value", "setting": "[21]", "result": "0.074 OD and 0.071 OD"},
      {"measurement": "OD value", "setting": "[22]", "result": "0.01 OD and 0.015 OD"},
      {"measurement": "OD value", "setting": "[23]", "result": "0.018 OD and 0.022 OD"},
      {"measurement": "OD value", "setting": "[24]", "result": "0.018 OD and 0.015 OD"},
      {"measurement": "OD value", "setting": "[25]", "result": "0.025 OD and 0.032 OD"},
      {"measurement": "OD value", "setting": "[26]", "result": "0.03 OD and 0.028 OD"},
      {"measurement": "OD value", "setting": "[27]", "result": "0.019 OD and 0.025 OD"}
    ]}
  ]
}
